Test [1] deals with T1, Cloned MTL-1A Receptor (human) (Homo sapiens, UniProt O43193).
T1 construct: The full length open reading frame appears to contain 412 amino acids; expressed in transfected cells; host or cells: HEK-293/aeq17 (293-AEQ17), transient transfection with lipofectamine
Briefly: [^125I] human motilin binding to crude membranes from HEK-293/aeq17 cells transfected with MTL-R1A cDNA. Particulars: for IC50: competition binding, crude membranes, 20° C. for 1 hr., read-out: [^125I] hmotilin binding (IC50). Here is the method:
Crude cell membranes were prepared on ice, 48 hrs. post-transfection. […] Bound radioligand was separated by rapid vacuum filtration (Brandel 48-well cell harvester) through GF/C filters pretreated for 1 hr. with 0.5% polyethylenimine.

In test [2] the target is T1, Cloned MTL-1A Receptor (human). Briefly: Aequorin bioluminescence assay in HEK-293/aeq17 cells transfected with MTL-R1A. It is filed as cell-based. Particulars: for EC50: HEK-293/aeq17 cells transfected with human MTL-R1A; for activity in MTL1-A functional and binding assays: high (10 μM) doses, statement covers functional and binding assays. The text has this:
A high-throughput assay was developed which measures Ca^2+realease with the bioluminescent Ca^2+sensitive-aequorin reporter protein (capable of measuring ligand-induced IP3-coupled mobilization of intracellular calcium and concomitant calcium-induced aequorin bioluminescence). […] The DNA and deduced amino acid sequence are given in SEQ. ID. NO.:2 and SEQ. ID. NO.:3, respectively.
To identify a ligand for this orphan GPCR and to determine whether the full length, 7 TM domain GPR38-A is a functional GPCR, a high-throughput assay was developed which measures Ca^2+ release with the bioluminescent Ca^2+ sensitive aequorin reporter protein (capable of measuring ligand-induced IP3-coupled mobilization of intracellular calcium and concomitant calcium-induced aequorin bioluminescence).
A broad set of peptide and non-peptide molecules was tested at a single concentration in transiently transfected HEK-293/aeq17 cells (100 nM peptide, 10 μM non-peptide).
The aequorin bioluminescence assay is a reliable test for identifying G protein-coupled receptors which couple through the Gα protein subunit family consisting of Gq and G11 which leads to the activation of phospholipase C, mobilization of intracellular calcium and activation of protein kinase C. Measurement of MTL-1A expression in the aequorin-expressing stable reporter cell line 293-AEQ17 (Button, D. et. al., 1993 Cell Calcium 14: p. 663–671.) was performed using a Luminoskan RT luminometer (Labsystems Inc., Gaithersburg, Md.).
293-AEQ17 cells (8×10^5 cells plated 18 hrs. before transfection in a T75 flask) were transfected with 22 μg of human MTL-R1A plasmid DNA: 264 μg lipofectamine. Following approximately 40 hours of expression the apo-aequorin in the cells was charged for 4 hours with coelenterazine (10 μM) under reducing conditions (300 μM reduced glutathione) in ECB buffer (140 mM NaCl, 20 mM KCl, 20 mM HEPES—NaOH [pH=7.4], 5 mM glucose, 1 mM MgCl2, 1 mM CaCl2, 0.1 mg/ml bovine serum albumin). The cells were harvested, washed once in ECB medium and resuspended to 500,000 cells/ml. 100 μl of cell suspension (corresponding to 5×10^4 cells) was then injected into the test plate, and the integrated light emission was recorded over 30 seconds, in 0.5 second units. 20 μL of lysis buffer (0.1% final Triton X-100 concentration) was then injected and the integrated light emission recorded over 10 seconds, in 0.5 second units. The “fractional response” values for each well were calculated by taking the ratio of the integrated response to the initial challenge to the total integrated luminescence including the Triton X-100 lysis response.

For test [3], the system named is cells that were not transfected with the MTL-R1A cDNA expression vector. Briefly: Aequorin bioluminescence assay in non-transfected cells. It is filed as cell-based, human. The settings on record: concentrations as high as 10 μM.
Test [4] concerns the target T2, motilin receptor spliced form A (MTL-R1A), human (human, UniProt O43193 1-412). Description: cell-based or functional assay.
Test [5] deals with T2, motilin receptor spliced form A …. Briefly: displacement of [125I] human motilin from crude membranes of MTL-R1A transfected HEK-293/aeq17 cells. On the procedure: Crude cell membranes were prepared on ice, 48 hrs. post-transfection. Each T-75 flask was washed twice with 10 ml of PBS, once with 1 ml homogenization buffer (50 mM Tris-HCl [pH 7.4], 10 mM MgCl_2. 10 ml of homogenization buffer was added to each flask, cells were removed by scraping and then homogenized using a Polytron device (Brinkmann, Syosset, N.Y.; 3 bursts of 10 sec. at setting 4). The homogenate was centrifuged for 20 min. at 11,000×g at 0° C. and the resulting crude membrane pellet (chiefly containing cell membranes and nuclei) was resuspended in homogenization buffer supplemented with 1.5% BSA (0.5 ml T75 flask) and kept on ice.
Bound radioligand was separated by rapid vacuum filtration (Brandel 48-well cell harvester) through GF/C filters pretreated for 1 hr. with 0.5% polyethylenimine. After application of the membrane suspension to the filter, the filters were washed 3 times with 3 ml each of ice-cold 50 mM Tris-HCl [pH 7.4], 10 mM MgCl_2, and the bound radioactivity on the filters was quantitated by gamma counting. […] Competition binding data were analyzed by a non-linear curve-fitting program (Prism V, version 2.0; GraphPad Software, San Diego, Calif.).
(In general: Displacement assays read how much labelled ligand stays bound in the presence of the test substance.)

The target is the same in test [6]. Briefly: direct radioligand binding on cell membranes from transfected cells.
Test [7] shares this target. Description: cell-based or functional assay. This is another data set of the same source.

No end group written: not given here. *: point of attachment. 125I = [125I]*

T1 sequence (O43193 whole entry): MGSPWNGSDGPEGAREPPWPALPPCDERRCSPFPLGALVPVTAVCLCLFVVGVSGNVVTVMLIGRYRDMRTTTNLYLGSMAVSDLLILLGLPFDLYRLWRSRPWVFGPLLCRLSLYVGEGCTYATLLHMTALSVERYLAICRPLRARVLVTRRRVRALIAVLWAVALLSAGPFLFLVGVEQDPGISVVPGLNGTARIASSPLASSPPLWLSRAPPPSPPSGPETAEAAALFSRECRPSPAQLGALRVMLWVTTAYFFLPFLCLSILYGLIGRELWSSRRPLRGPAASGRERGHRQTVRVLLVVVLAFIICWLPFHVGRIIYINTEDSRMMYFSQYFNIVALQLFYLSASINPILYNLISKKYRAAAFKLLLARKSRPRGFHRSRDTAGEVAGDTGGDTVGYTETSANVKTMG
T2 sequence (O43193 whole entry, canonical isoform): as the sequence (O43193 whole entry) above

In the case of `Nc1nc2c(ncn2[C@@H]2O[C@H](COP(=O)(O)OP(=O)(O)OP(O)(O)=S)[C@@H](O)[C@H]2O)c(=O)[nH]1` [GTPγS], in test [1] (100 nM GTPγS), the “inhibition of [^125I] human motilin binding” value is reported as more than 80%.

Take `COc1cc(N)c(Cl)cc1C(=O)NC1CCN(CCCOc2ccc(F)cc2)CC1OC` (centres unmarked) [cisapride]: in test [2], the half-maximal effective concentration (EC50) was more than 10000 nM; the “activity in MTL1-A functional and binding assays” value was “inactive”. Besides, in test [1], the IC50 is more than 10000 nM.

On to `CC[C@H](C)[C@H](NC(=O)[C@@H]1CCCN1C(=O)[C@@H](NC(=O)[C@@H](N)Cc1ccccc1)C(C)C)C(=O)N[C@@H](Cc1ccccc1)C(=O)N[C@H](C(=O)N[C@@H](Cc1ccc(O)cc1)C(=O)NCC(=O)N[C@@H](CCC(=O)O)C(=O)N[C@@H](CC(C)C)C(=O)N[C@@H](CCC(N)=O)C(=O)N[C@@H](CCCNC(=N)N)C(=O)N[C@@H](CCSC)C(=O)N[C@@H](CCC(N)=O)C(=O)N[C@@H](CCC(=O)O)C(=O)N[C@@H](CCCCN)C(=O)N[C@@H](CCC(=O)O)C(=O)N[C@@H](CCCNC(=N)N)C(=O)N[C@@H](CC(N)=O)C(=O)N[C@@H](CCCCN)C(=O)NCC(=O)N[C@@H](CCC(N)=O)C(=O)O)[C@@H](C)O` [human motilin], for which the “bioluminescent response in non-transfected cells” value in test [3] was “no bioluminescent response above background levels”.

`CCN(CC)CCNC(=O)c1cc(Cl)c(N)cc1OC` [metoclopramide]: in test [2], the 50% effective concentration (EC50) is more than 10000 nM; the “activity in MTL1-A functional and binding assays” value was “inactive”. Further, in test [1], the half-maximal inhibitory concentration (IC50) was more than 10000 nM.

In the case of `CC[C@H]1OC(=O)[C@H](C)[C@@H](O[C@H]2C[C@@](C)(OC)[C@@H](O)[C@H](C)O2)[C@H](C)[C@@H](O[C@@H]2O[C@H](C)C[C@H](N(C)C)[C@H]2O)[C@](C)(O)C[C@@H](C)/C(=N\OCOCCOC)[C@H](C)[C@@H](O)[C@]1(C)O` [roxithromycin], the EC50 in test [2] was 1950 nM. Besides, the IC50 in test [1] came out at 613 nM.

Turning to FVPIFTHSELQKIREKERNKGQ [canine motilin], in test [1], the 50% inhibitory concentration (IC50) was determined as 0.2 nM.

B1: 1-12 MTL (peptide, UniProt P12872 26-37, looked up)
peptide: FVPIFTYGELQR
notes: range 1-12; The range counts on mature motilin, not on the precursor entry
Regarding B1, the “Aequorin Assay (EC50 nM)” value in test [4] was determined as 72 nM. Also, in test [5], the 50% inhibitory concentration (IC50) came to 14 nM.

B2: 1-13 MTL (peptide, UniProt P12872 26-38, looked up)
peptide: FVPIFTYGELQRM
notes: range 1-13; The range counts on mature motilin, not on the precursor entry
Take B2: the “Aequorin Assay (EC50 nM)” value in test [4] amounted to 3.8 nM. This molecule also displayed an IC50 in test [5] of 0.9 nM.

The molecule FVPIFTY(125I)GELQRMQEKERNKGQ (peptide, UniProt P12872 26-47, looked up, mature) [[125I]-Tyr7-human motilin] showed an equilibrium dissociation constant (Kd) in test [6] of 0.1 nM.

B3: Leu13 MTL (peptide, UniProt P12872 26-47, looked up)
peptide: FVPIFTYGELQRLQEKERNKGQ
notes: mature; Position 13 counts on the mature peptide, not on the precursor
For the molecule B3, the “Aequorin Assay (EC50 nM)” value in test [4] is 3.9 nM. The same molecule returned an IC50 in test [5] of 0.2 nM.

For FVPIFTYGELQRMQEKERNKGQ (peptide, UniProt P12872 26-47, looked up) [human motilin], the “bioluminescent response (aequorin assay, 100 nM peptide, transfected HEK-293/aeq17 cells)” value in test [7] was more than 4 fold over background.

B4: 10-22 MTL (peptide, UniProt P12872 35-47, looked up)
peptide: LQRMQEKERNKGQ
notes: range 10-22; The range counts on mature motilin, not on the precursor entry
With B4, the “Aequorin Assay (EC50 nM)” value in test [4] was more than 10000 nM. In test [5], this molecule yielded a half-maximal inhibitory concentration (IC50) of 1100 nM.

B5: 1-19 MTL (peptide, UniProt P12872 26-44, looked up)
peptide: FVPIFTYGELQRMQEKERN
notes: range 1-19; The range counts on mature motilin, not on the precursor entry
Consider B5, for which the “Aequorin Assay (EC50 nM)” value in test [4] is 4.1 nM. The IC50 in test [5] amounted to 0.3 nM.

For FVPIFTHSELQKIREKERNKGQ (peptide, UniProt P19863 1-22, looked up) [canine motilin], the “Aequorin Assay (EC50 nM)” value in test [4] amounted to 4.4 nM.

B6: 1-11 MTL (peptide, UniProt P12872 26-36, looked up)
peptide: FVPIFTYGELQ
notes: range 1-11; The range counts on mature motilin, not on the precursor entry
As for B6, the “Aequorin Assay (EC50 nM)” value in test [4] was 138 nM. The same molecule came in with a half-maximal inhibitory concentration (IC50) in test [5] of 127 nM.

What is called EC50 is the concentration at which the effect is half-maximal. A high value points to weaker potency. Broadly, the IC50 is the point on the concentration scale where inhibition reaches its midpoint. Usually Kd stands for the equilibrium constant for the complex coming apart. Low values mean tighter binding, high ones weaker binding.

Values taken from patent US7179886B1, “Cloning and identification of the motilin receptor” (Merck & Co., Inc., priority 1999, dated 2007).
